Here are results for one molecule from patent US20050221443A1 (published 2005).

The assay has as its target T1, RANK-L (UniProt O14788 140-317, limits assumed).
T1 sequence (looked up): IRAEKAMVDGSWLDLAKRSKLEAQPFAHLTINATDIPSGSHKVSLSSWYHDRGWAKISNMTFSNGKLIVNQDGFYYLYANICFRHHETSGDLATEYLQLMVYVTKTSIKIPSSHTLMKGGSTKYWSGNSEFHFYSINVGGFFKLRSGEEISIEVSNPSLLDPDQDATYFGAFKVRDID
The assay can be described thus: polarization anisotropy at steady state, 1 ug/mL Alexa568 TNF with increasing concentrations of RANK-L, 1 hour at 37 C. How it is done: This assay necessitated a fluorescently labeled TNF trimer that at limiting concentrations could be used as a tracer to monitor exchange. We generated a TNF variant (R31C/C69V/C101A) and specifically labeled it with Alexa568 maleimide at the R31 position. Polarization anisotropy measures heterotrimer formation at steady-state. We mixed 1 ug/mL Alexa568 TNF either alone (open circles) or with increasing concentrations of RANK-L (open squares), PEG20k-A145R/Y87H TNF, PEG5k-A145R/Y87H, or A145R/Y87H in PBS/0.02% igepal for 1 hour at 37 C. These reactions were placed into the spectroscopic instrument-and the steady-state anisotropy was measured. […] (FIG. 8B) Addition of surfactant excipients catalyzes the exchange between TNF homotrimers. We mixed together 1 ug/mL Alexa568 TNF alone (open circles) or with 100 ug/mL PEG-5k A145R/I97T TNF (closed circles) in a 96-well assay format and began anisotropy measurements. After ˜2000 seconds the instrument was paused and 0.5% polysorbate-20 or polysorbate-80 were added and the measurement was resumed.

B1: Alexa568 TNF (TNF variant R31C/C69V/C101A labeled with Alexa568 maleimide) (ligand, human, UniProt P01375 77-233, looked up)
chain: VRSSSRTPSDKPVAHVVANPQAEGQLQWLNCRANALLANGVELRDNQLVVPSEGLYLIYSQVLFKGQGVPSTHVLLTHTISRIAVSYQTKVNLLSAIKSPAQRETPEGAEAKPWYEPIYLGGVFQLEKGDRLSAEINRPDYLDFAESGQVYFGIIAL
modifications: Alexa568 maleimide at the R31 position (Cys of R31C)
notes: extracellular domain; Fluorescent tracer homotrimer
Turning to B1, the binding result is “no binding”.
